Data on one substance can be found in US20230204576A1.

Experiment [1] concerns the target HLA A*03:01, labelled with Alexafluor 647 (human). The experiment can be described thus: microfluidic diffusional sizing, 25 nM HLA, non-linear binding fit.
Experiment [2] has the same target. The experiment can be described thus: microfluidic diffusional sizing, global fit at 25 nM and 500 pM HLA.

Take antibody W6/32: in experiment [1], the Kd is 0.961 nM and the binding site concentration B1 stood at 13 nM. The same substance yielded a Kd in experiment [2] of 0.466 nM.

What is called Kd is the free concentration of one partner at which half of the binding sites on the other are occupied at equilibrium, for simple one-to-one binding.
